This is an account of results in publication PMC12365241.

In general, stoichiometry N refers to the number of molecules, sites or subunits per partner or assembly.

Values joined by “and” are separate entries in the source; they are usually repeats but may differ in a detail not shown here. Identical values can stand only once.

For the experiment, the target named is PorK (Porphyromonas gingivalis (endogenous)). As to the kind of experiment: cryo-EM structure.

Take PorK (natural protein): the stoichiometry N was 32 and 33.
